This note sets out measurements from paper PMC5872582.

This assay addresses L1 ORF1p-T7 (T7-tagged ORF1 protein expressed from the L1 construct pAD2TE1) (human) (UniProt Q9UN81). The assay can be described thus: co-IP; 293T cells cotransfected with pAD2TE1 and the partner; lysis 48 h posttransfection in 160 mM NaCl, 50 mM Tris-HCl pH 7.5, 1 mM EDTA, […] NP-40 with RNaseOUT; ORF1p-T7 precipitated with anti-T7 monoclonal antibody on magnetic beads; immunoblot; signals normalized on T7 signal in IP and myc signal in WCL. Background: In western blotting, separated proteins are transferred to a membrane and probed.
Chain of UniProt Q9UN81 (Q9UN81 whole entry): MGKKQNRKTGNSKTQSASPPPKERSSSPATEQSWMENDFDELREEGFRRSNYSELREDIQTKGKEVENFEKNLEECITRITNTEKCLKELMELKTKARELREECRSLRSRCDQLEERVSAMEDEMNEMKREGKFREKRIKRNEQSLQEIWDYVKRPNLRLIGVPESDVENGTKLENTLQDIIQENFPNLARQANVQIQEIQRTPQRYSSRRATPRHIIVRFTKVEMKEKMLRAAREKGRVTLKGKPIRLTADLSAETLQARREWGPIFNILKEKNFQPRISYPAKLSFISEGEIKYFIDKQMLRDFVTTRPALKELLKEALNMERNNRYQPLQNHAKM

For “human SAMHD1 T592A, myc-tagged (from UniProt Q9Y3Z3 1-626) (natural protein)”, the normalized densitometric intensity of the co-precipitated band was 100%.

In turn, “human SAMHD1 T592D, myc-tagged (from UniProt Q9Y3Z3 1-626) (natural protein)” came in with a normalized densitometric intensity of the co-precipitated band of 24%.
